From PMC9886945 (Nature Communications, 2023)

Key:
Assay in all cases: cryo-EM structure
[1] = target: the molecule itself
[2] = target: T1, Mycobacterium tuberculosis RNA polymerase β subunit (M. tuberculosis, UniProt P9WGY9); settings: both partners purified
T1 sequence: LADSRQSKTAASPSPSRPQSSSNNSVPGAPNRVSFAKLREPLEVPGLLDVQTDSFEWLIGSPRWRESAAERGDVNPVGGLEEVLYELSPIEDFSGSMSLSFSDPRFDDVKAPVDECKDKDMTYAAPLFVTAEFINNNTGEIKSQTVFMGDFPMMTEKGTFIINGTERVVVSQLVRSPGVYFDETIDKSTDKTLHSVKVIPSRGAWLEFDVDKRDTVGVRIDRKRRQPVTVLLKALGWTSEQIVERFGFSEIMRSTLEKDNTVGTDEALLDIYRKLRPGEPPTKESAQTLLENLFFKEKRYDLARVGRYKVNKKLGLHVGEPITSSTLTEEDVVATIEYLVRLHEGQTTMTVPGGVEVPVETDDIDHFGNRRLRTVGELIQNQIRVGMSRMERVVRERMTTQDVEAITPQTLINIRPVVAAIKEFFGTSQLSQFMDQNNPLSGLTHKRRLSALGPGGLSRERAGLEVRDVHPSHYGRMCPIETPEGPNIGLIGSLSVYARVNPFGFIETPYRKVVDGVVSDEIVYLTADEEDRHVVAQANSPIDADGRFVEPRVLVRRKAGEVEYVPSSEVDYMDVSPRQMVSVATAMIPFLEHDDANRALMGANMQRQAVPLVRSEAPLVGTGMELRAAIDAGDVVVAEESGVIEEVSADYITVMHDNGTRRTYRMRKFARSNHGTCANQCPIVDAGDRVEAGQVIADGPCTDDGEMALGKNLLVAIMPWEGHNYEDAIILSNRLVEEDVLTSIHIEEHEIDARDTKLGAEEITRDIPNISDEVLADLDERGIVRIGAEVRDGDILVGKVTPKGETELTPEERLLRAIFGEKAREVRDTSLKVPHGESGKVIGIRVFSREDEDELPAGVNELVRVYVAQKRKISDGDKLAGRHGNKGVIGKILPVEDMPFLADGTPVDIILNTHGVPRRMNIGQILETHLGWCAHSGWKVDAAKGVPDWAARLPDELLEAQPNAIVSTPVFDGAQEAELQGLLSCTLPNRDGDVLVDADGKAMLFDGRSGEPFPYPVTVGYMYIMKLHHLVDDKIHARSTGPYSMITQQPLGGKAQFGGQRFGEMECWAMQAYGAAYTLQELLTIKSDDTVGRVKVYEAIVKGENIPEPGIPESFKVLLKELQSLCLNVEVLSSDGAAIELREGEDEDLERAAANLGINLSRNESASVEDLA

[3] = target: Mycobacterium tuberculosis RNA polymerase β' subunit (M. tuberculosis, UniProt P9WGY7); settings: both partners purified
Chain of Mycobacterium tuberculosis RNA polymerase β' subunit (P9WGY7 whole entry): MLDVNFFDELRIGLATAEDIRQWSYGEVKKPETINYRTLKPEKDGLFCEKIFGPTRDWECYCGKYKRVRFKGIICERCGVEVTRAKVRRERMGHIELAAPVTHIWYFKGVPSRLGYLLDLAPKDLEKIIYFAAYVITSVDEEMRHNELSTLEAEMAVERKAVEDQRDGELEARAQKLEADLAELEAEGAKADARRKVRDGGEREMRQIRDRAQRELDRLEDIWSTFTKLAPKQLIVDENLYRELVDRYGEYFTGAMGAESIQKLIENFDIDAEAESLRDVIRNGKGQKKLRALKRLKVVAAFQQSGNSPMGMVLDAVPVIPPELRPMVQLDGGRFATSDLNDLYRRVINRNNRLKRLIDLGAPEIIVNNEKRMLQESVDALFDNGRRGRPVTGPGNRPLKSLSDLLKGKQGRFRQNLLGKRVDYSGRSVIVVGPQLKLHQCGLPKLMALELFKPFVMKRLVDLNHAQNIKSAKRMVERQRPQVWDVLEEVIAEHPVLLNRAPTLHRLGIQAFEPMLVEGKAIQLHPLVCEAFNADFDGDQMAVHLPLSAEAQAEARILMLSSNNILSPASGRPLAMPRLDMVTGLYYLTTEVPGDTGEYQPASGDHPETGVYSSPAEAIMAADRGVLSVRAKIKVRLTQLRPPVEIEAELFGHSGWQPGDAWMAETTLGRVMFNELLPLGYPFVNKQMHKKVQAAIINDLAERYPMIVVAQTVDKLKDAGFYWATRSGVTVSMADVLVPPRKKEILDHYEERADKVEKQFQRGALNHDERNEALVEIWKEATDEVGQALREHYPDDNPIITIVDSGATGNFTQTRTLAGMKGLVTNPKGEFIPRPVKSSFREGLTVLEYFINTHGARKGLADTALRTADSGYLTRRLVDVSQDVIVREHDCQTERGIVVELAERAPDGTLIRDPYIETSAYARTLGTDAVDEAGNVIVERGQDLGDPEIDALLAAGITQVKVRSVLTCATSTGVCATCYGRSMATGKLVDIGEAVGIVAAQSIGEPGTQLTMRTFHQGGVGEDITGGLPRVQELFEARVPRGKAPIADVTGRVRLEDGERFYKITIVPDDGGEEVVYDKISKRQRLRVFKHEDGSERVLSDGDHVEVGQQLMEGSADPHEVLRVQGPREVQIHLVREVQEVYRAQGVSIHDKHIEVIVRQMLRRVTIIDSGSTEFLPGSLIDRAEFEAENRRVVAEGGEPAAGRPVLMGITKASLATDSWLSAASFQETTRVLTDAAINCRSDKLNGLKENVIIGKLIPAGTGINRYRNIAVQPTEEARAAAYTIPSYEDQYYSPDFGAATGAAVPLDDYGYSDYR

Measured: binding result

B1: Mycobacterium tuberculosis σ^B subunit (natural protein)
chain: MADAPTRATTSRVDSDLDAQSPAADLVRVYLNGIGKTALLNAAGEVELAKRIEAGLYAEHLLETRKRLGENRKRDLAAVVRDGEAARRHLLEANLRLVVSLAKRYTGRGMPLLDLIQEGNLGLIRAMEKFDYTKGFKFSTYATWWIRQAITRGMADQSRTIRLPVHLVEQVNKLARIKREMHQHLGREATDEELAAESGIPIDKINDLLEHSRDPVSLDMPVGSEEEAPLGDFIEDAEAMSAENAVIAELLHTDIRSVLATLDEREHQVIRLRFGLDDGQPRTLDQIGKLFGLSRERVRQIERDVMSKLRHGERADRLRSYAS
binds: all assays above
